Source: patent US20050070001A1, “Xylosyltransferase and isoforms thereof” (priority 1999, published 2005)

Target: T1, XT-II (Homo sapiens, UniProt Q9H1B5, R305T)
T1 construct: polyhistidine leader of vector pcDNA4/HisMax-TOPO (own knowledge of the vector); made in house; host or cells: CHO-K1, transient transfection with pCG226-XT-II; medium treated with anti-Xpress antibody and protein G agarose beads
T1 sequence (Q9H1B5 46-865 R305T): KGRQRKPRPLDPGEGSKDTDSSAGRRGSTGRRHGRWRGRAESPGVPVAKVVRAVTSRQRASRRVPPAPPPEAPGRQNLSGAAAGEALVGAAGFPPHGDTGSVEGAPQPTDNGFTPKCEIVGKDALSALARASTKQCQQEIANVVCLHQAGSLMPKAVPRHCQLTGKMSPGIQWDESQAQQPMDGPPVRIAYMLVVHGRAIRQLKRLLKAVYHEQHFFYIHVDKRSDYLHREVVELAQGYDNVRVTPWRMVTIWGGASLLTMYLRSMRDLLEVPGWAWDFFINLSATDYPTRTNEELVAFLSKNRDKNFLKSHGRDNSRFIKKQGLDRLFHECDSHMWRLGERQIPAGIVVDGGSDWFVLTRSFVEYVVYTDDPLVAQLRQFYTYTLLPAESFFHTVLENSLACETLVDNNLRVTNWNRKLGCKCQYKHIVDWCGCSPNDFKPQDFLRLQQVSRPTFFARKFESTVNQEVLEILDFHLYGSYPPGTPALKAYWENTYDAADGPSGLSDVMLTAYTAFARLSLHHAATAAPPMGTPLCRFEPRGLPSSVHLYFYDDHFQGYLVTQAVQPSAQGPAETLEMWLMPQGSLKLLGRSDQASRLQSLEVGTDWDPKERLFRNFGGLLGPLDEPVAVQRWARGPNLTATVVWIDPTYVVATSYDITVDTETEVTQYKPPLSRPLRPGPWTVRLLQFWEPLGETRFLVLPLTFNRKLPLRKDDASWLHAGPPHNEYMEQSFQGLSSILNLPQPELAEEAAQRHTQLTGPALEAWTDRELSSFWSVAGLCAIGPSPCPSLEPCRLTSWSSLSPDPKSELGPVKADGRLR
Test: XT activity assay of XT-II fused to aminoterminal peptide tag, expressed in CHO-K1 cells
Type: biochemical
Source text: The degenerate primers PFF-sense and Lysc-inv1 which were designed upon the amino acid sequence of proteolytic cleaved peptides of human XT-I were used in a PCR reaction with first strand cDNA of placenta poly(A)^+ mRNA as template. […] To clone the complete coding sequence of the novel cDNA, the RACE strategy was employed. The cDNA finally obtained was 3608 bp (FIG. 8A) and contained a single open reading frame encoding a protein of 865 amino acids with a molecular mass of 97.000. The 3′-untranslated region is 850 bp and a 5′-untranslated region of 149 bp was identified with an in-frame stop codon upstream of the ATG codon. […] No detectable XT activity was recovered by the affinity purification from a control transfection sample. The substrate specificity of the recombinant XT-I was similar to that of the XT-I isolated from human body fluids and cell culture supernatants.
Determination of XT activity. Determination of XT activity is based on the incorporation of [14C]-D-xylose into the recombinant bikunin according to a previously described method (Brinkmann et al., 1997, J. Biol. Chem., 272, 11171-11175). For analysis of the substrate specificity of the recombinant xylosyltransferases synthetic peptides containing the XT recognition sequence were used as acceptor. […] Incorporated radioactivity was determined by liquid scintillation counting. […]

enzymatic transfer of xylose to the acceptor peptides: no enzymatic transfer of xylose
B1: XT-II: human xylosyltransferase isoform 2, 865 amino acids, FIG. 8B (protein, UniProt Q9H1B5 1-865, looked up)
chain: MVASARVQKLVRRYKLAIATALAILLLQGLVVWSFSGLEEDEAGEKGRQRKPRPLDPGEGSKDTDSSAGRRGSTGRRHGRWRGRAESPGVPVAKVVRAVTSRQRASRRVPPAPPPEAPGRQNLSGAAAGEALVGAAGFPPHGDTGSVEGAPQPTDNGFTPKCEIVGKDALSALARASTKQCQQEIANVVCLHQAGSLMPKAVPRHCQLTGKMSPGIQWDESQAQQPMDGPPVRIAYMLVVHGRAIRQLKRLLKAVYHEQHFFYIHVDKRSDYLHREVVELAQGYDNVRVTPWRMVTIWGGASLLRMYLRSMRDLLEVPGWAWDFFINLSATDYPTRTNEELVAFLSKNRDKNFLKSHGRDNSRFIKKQGLDRLFHECDSHMWRLGERQIPAGIVVDGGSDWFVLTRSFVEYVVYTDDPLVAQLRQFYTYTLLPAESFFHTVLENSLACETLVDNNLRVTNWNRKLGCKCQYKHIVDWCGCSPNDFKPQDFLRLQQVSRPTFFARKFESTVNQEVLEILDFHLYGSYPPGTPALKAYWENTYDAADGPSGLSDVMLTAYTAFARLSLHHAATAAPPMGTPLCRFEPRGLPSSVHLYFYDDHFQGYLVTQAVQPSAQGPAETLEMWLMPQGSLKLLGRSDQASRLQSLEVGTDWDPKERLFRNFGGLLGPLDEPVAVQRWARGPNLTATVVWIDPTYVVATSYDITVDTETEVTQYKPPLSRPLRPGPWTVRLLQFWEPLGETRFLVLPLTFNRKLPLRKDDASWLHAGPPHNEYMEQSFQGLSSILNLPQPELAEEAAQRHTQLTGPALEAWTDRELSSFWSVAGLCAIGPSPCPSLEPCRLTSWSSLSPDPKSELGPVKADGRLR
modifications: full-length
